This is an account of results in doi:10.1101/2025.10.11.676729.

The target in the test is Pyrococcus abyssi 70S ribosome (Pyrococcus abyssi (endogenous in P. abyssi)) (UniProt Q9V109). As to the kind of experiment: cryo-EM structure.
Sequence of UniProt Q9V109 (Q9V109 whole entry, looked up): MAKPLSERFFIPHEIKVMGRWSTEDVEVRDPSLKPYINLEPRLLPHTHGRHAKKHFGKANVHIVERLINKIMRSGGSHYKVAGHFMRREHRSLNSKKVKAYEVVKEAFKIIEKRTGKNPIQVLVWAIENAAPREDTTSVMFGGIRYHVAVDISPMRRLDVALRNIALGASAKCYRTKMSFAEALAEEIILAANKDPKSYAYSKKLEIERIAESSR

B1: Hib, endogenous, bound to ribosomes isolated from Pyrococcus abyssi cell extracts (natural protein)
chain: MVGIQVQEVMTDRYAKIDINAPLSEAIGIIEKEDPDLILVFDDNVYKGVLTQDLIIRSHLKWDPTKAKVRDVYKPAPVVKPTDDLSHAAKLLLETDLRSLPVGENKAEILGVISDMALLERVVAEEFGKRKVEEFMTKDVITLGPDDTVAKALATMRDHGISRIPVVDEEGKLEGLVTLHDLIIRFIKPRFKAQYGELAGEKIPPFSMKLREAMIKGVITIMPEATIREAVSTMKDNNIDGLVVVDENNKVVGILTVKDLLLPISRMVEKEARFYLQLGGDASALSEFTRERIINDIKRFVDGYADLLGNEGIIYLYIRRFNEKFRGVHLYQARMRVVTDRGVFIARGETWGAIQAVHDAIRAIERQLLQKAELERDIRYAKRFIEKLELWR
On to B1, for which the percent of 70S particles that contained Hib came out at 51.6%.
